Two substances from US20260061032A1 can be followed below.

In general, Kd refers to the equilibrium constant for the complex coming apart. High values mean weaker binding, low ones tighter binding.

The target in one assay is hIL-2Rβ (human) (UniProt P14784). Description: SPR, Biacore T200; hIL-2Rβ as analyte; three-step format as the filing describes it. Background: In SPR one partner is held on a chip, and binding of the other changes the refractive index at the surface.
In the next assay the target is hIL-2Rα (human) (UniProt P01589). Description: SPR, Biacore T200; hIL-2Rα on CM5 chip through His capture kit, binder as analyte.
Sequence of hIL-2Rα (human) (P01589 22-213): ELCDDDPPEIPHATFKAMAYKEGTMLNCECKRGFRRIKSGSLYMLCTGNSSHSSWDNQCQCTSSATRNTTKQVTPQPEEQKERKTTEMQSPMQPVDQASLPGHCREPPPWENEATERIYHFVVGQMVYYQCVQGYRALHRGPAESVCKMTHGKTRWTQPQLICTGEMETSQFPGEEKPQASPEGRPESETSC
In another assay the target is hIL-2Rβγ (human) (UniProt P14784). Description: SPR, Biacore T200; hIL-2Rβγ as analyte, single cycle kinetics; three-step format as the filing describes it.
Sequence of hIL-2Rβγ (human) (P14784 27-239, chain 1 of 2): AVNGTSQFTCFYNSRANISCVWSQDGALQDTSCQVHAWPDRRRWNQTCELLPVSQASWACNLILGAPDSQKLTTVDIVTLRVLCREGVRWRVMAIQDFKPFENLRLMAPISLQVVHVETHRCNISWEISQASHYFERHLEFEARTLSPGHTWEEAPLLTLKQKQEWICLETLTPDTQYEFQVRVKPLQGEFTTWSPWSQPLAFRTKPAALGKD
Sequence of hIL-2Rβγ (human) (P31785 23-254, chain 2 of 2, further chain): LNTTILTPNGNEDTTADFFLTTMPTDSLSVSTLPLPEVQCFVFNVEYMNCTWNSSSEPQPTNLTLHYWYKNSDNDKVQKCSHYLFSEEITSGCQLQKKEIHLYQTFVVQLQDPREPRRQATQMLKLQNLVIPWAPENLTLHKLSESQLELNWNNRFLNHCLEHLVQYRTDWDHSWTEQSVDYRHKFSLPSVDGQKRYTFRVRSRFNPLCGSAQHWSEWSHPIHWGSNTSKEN
Assay [1] addresses IL-2Rβγ on HEK-BLUE IL-2 reporter cells (UniProt P14784). In words: cell-based or functional assay.
Assay [2] concerns the target hIL-2Rαβγ on CTLL-2 cells (human) (UniProt P01589). In words: cell-based or functional assay.
The target in a further assay is cyCD73. In words: SPR, Biacore T200; binder captured on CM5 chip by human antibody capture kit, CD73 as analyte.
Assay [3] concerns the target hCD73 (human) (UniProt P21589). Described as above.
The target in assay [4] is membrane-bound human CD73 (human) (UniProt P21589). Description: cell-based or functional assay.
Sequence of membrane-bound human CD73 (human) (P21589 27-549 limits assumed): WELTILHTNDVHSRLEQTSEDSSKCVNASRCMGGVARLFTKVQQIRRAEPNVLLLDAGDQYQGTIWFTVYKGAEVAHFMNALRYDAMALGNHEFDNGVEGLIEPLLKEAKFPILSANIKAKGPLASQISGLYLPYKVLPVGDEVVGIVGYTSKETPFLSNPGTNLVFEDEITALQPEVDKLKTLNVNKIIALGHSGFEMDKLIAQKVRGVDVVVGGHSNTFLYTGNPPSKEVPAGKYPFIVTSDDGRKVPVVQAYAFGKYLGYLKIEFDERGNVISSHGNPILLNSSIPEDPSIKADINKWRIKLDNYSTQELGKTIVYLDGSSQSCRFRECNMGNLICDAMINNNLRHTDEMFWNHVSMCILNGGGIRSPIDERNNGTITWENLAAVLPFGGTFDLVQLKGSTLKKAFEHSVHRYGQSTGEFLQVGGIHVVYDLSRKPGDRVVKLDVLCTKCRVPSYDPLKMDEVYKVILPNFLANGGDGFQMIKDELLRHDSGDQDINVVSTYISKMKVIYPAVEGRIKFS
In assay [5] the target is hCD73 (human) (UniProt P21589). In words: cell-based or functional assay.
Sequence of hCD73 (human) (P21589 27-549 limits assumed): as above

Sequence of hIL-2Rβ (human) (P14784 27-239): as the sequence (P14784 27-239, chain 1 of 2) above
Sequence of IL-2Rβγ on HEK-BLUE IL-2 reporter cells (P14784 27-551, chain 1 of 2): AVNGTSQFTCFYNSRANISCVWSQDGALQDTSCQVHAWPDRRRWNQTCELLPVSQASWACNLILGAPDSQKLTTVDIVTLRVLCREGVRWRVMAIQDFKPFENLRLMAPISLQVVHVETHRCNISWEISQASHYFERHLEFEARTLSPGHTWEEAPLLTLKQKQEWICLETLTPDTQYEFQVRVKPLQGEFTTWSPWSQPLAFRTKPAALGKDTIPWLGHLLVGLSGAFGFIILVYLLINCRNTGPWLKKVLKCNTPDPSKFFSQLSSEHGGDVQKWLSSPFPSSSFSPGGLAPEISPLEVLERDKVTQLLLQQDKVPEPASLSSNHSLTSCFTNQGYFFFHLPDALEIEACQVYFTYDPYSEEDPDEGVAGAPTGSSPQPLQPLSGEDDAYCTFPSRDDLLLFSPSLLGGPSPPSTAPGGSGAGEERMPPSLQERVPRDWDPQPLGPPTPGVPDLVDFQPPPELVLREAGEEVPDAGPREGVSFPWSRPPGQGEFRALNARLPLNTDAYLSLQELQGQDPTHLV
Sequence of IL-2Rβγ on HEK-BLUE IL-2 reporter cells (P31785 23-369, chain 2 of 2, further chain): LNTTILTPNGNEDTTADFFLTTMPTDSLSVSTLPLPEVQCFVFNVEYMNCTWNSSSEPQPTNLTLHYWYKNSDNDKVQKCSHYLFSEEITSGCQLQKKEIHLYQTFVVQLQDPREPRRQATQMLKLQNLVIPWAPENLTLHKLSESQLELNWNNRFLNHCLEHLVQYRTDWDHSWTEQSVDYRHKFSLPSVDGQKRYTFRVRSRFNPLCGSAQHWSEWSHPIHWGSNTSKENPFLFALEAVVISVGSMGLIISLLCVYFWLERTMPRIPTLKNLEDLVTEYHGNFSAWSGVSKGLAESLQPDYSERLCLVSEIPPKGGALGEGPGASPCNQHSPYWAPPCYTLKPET
Sequence of hIL-2Rαβγ on CTLL-2 cells (human) (P01589 22-272, chain 1 of 3): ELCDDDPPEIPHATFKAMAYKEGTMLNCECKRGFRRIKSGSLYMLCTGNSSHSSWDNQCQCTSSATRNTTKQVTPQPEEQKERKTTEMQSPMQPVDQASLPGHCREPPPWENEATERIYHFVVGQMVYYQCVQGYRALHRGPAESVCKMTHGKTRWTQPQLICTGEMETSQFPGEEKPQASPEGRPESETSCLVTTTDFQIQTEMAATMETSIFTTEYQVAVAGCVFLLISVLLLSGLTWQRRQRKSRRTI
Sequence of hIL-2Rαβγ on CTLL-2 cells (human) (P14784 27-551, chain 2 of 3, further chain): as the sequence (P14784 27-551, chain 1 of 2) above
Sequence of hIL-2Rαβγ on CTLL-2 cells (human) (P31785 23-369, chain 3 of 3, further chain): as the sequence (P31785 23-369, chain 2 of 2, further chain) above

For “Aldesleukin (trade name: PROLEUKIN, Novartis) (ligand)”, the Kd in the assay with hIL-2Rβ (human) is 2080 nM; with hIL-2Rα (human) it was 49.6 nM; with hIL-2Rβγ (human), 0.01 nM. The same substance came in with an EC50, SEAP reporter (JAK-STAT pathway activation) in HEK-BLUE IL-2 reporter cells in [1] of 0.0103 nM. For the same substance, the EC50, CTLL-2 cell proliferation (WST-1 absorbance) in assay [2] is 0.08 nM.

For the substance “Oleclumab (Astrazeneca), produced on order from Ybiologics, Inc. (antibody)”, the Kd in the assay with cyCD73 stood at 0.349 nM; with hCD73 (human) [3], 0.101 nM. For the same substance, the IC50, inhibition of membrane-bound CD73 enzyme activity on MDA-MB-231 cells (adenosine assay) in [4] turned out to be 1.47 nM. In the assay with hCD73 (human) [5], the IC50, inhibition of soluble CD73 enzyme activity (AMP-Glo assay, recombinant human CD73) worked out at 0.03 nM.
